The results in this text go back to the supplement of paper PMC9428881.

A short description of this data set: background-corrected fluorescence of 3'-dye-labeled ssDNA relative to brightest sequence (3'-GCGCG) (fraction); higher = brighter dye fluorescence (less quenching). An outline of the steps:
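By light-directed phosphoramidite synthesis, single-stranded DNA ending in a 3' Cy3 or Cy5 dye beside each of 1024 permuted pentamers was built on glass slides. Scanning at 532 or 635 nm took place before and after overnight ethylenediamine/ethanol deprotection. Data are means of 10 features per array over at least 3 syntheses. Fluorescence is corrected for unlabeled-oligo background and scaled to the brightest sequence.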

± gives the standard error.

Regarding “TTTTTTCATCATGCTCAGCATTTTTTTTTTTTTTTGGAGT [TGAGG]”, the background-corrected fluorescence by setting is: (dye: Cy3 (3' terminal)) 0.653 ± 0.017; (dye: Cy5 (3' terminal)) 0.537 ± 0.048.

In the case of “TTTTTTCATCATGCTCATCATTTTTTTTTTTTTTTGGAGG”, the background-corrected fluorescence is 0.689 ± 0.0083 (dye: Cy3 (3' terminal)) and 0.534 ± 0.029 (dye: Cy5 (3' terminal)).

Turning to “TTTTTTCATCATGCTCATGATTTTTTTTTTTTTTTGGAGC [CGAGG]”, the background-corrected fluorescence is 0.549 ± 0.026 (dye: Cy3 (3' terminal)) and 0.439 ± 0.029 (dye: Cy5 (3' terminal)).

Consider “TTTTTTCATCATGCTCATGCTTTTTTTTTTTTTTTGGAGA [AGAGG]”, for which the background-corrected fluorescence runs as follows: (dye: Cy3 (3' terminal)) 0.726 ± 0.026; (dye: Cy5 (3' terminal)) 0.594 ± 0.04.

Regarding “TTTTTTCATCATGCTGAGCATTTTTTTTTTTTTTTGGACT [TCAGG]”, the background-corrected fluorescence reads like this: (dye: Cy3 (3' terminal)) 0.508 ± 0.033; (dye: Cy5 (3' terminal)) 0.412 ± 0.04.

As to “TTTTTTCATCATGCTGATCATTTTTTTTTTTTTTTGGACG [GCAGG]”, the background-corrected fluorescence (dye: Cy3 (3' terminal)) was determined as 0.567 ± 0.016 and the background-corrected fluorescence (dye: Cy5 (3' terminal)) is 0.455 ± 0.019.

Take “TTTTTTCATCATGCTGATGATTTTTTTTTTTTTTTGGACC [CCAGG]”: the background-corrected fluorescence (dye: Cy3 (3' terminal)) worked out at 0.446 ± 0.022 and the background-corrected fluorescence (dye: Cy5 (3' terminal)) was determined as 0.317 ± 0.023.

In the case of “TTTTTTCATCATGCTGATGCTTTTTTTTTTTTTTTGGACA [ACAGG]”, the background-corrected fluorescence runs as follows: (dye: Cy3 (3' terminal)) 0.602 ± 0.022; (dye: Cy5 (3' terminal)) 0.435 ± 0.053.

As for “TTTTTTCATCATGCTGCGCATTTTTTTTTTTTTTTGGAAT [TAAGG]”, the background-corrected fluorescence (dye: Cy3 (3' terminal)) came to 0.594 ± 0.033 and the background-corrected fluorescence (dye: Cy5 (3' terminal)) worked out at 0.453 ± 0.043.

As to “TTTTTTCATCATGCTGCTCATTTTTTTTTTTTTTTGGAAG [GAAGG]”, the background-corrected fluorescence is, setting by setting: (dye: Cy3 (3' terminal)) 0.593 ± 0.033; (dye: Cy5 (3' terminal)) 0.445 ± 0.03.

Regarding “TTTTTTCATCATGCTGCTGATTTTTTTTTTTTTTTGGAAC [CAAGG]”, the background-corrected fluorescence runs as follows: (dye: Cy3 (3' terminal)) 0.463 ± 0.028; (dye: Cy5 (3' terminal)) 0.352 ± 0.019.

As to “TTTTTTCATCATGCTGCTGCTTTTTTTTTTTTTTTGGAAA [AAAGG]”, the background-corrected fluorescence runs as follows: (dye: Cy3 (3' terminal)) 0.642 ± 0.038; (dye: Cy5 (3' terminal)) 0.534 ± 0.035.

With “TTTTTTCATGAGCAGCAGCATTTTTTTTTTTTTTTGCTTT [TTTCG]”, the background-corrected fluorescence runs as follows: (dye: Cy3 (3' terminal)) 0.5304 ± 0.0051; (dye: Cy5 (3' terminal)) 0.384 ± 0.038.

In turn, “TTTTTTCATGAGCAGCATCATTTTTTTTTTTTTTTGCTTG [GTTCG]” gave a background-corrected fluorescence (dye: Cy3 (3' terminal)) of 0.465 ± 0.023 and a background-corrected fluorescence (dye: Cy5 (3' terminal)) of 0.343 ± 0.021.

Consider “TTTTTTCATGAGCAGCATGATTTTTTTTTTTTTTTGCTTC [CTTCG]”, for which the background-corrected fluorescence by setting is: (dye: Cy3 (3' terminal)) 0.388 ± 0.041; (dye: Cy5 (3' terminal)) 0.285 ± 0.024.

Turning to “TTTTTTCATGAGCAGCATGCTTTTTTTTTTTTTTTGCTTA [ATTCG]”, the background-corrected fluorescence was determined as 0.534 ± 0.026 (dye: Cy3 (3' terminal)) and 0.408 ± 0.03 (dye: Cy5 (3' terminal)).

Take “TTTTTTCATGAGCATCAGCATTTTTTTTTTTTTTTGCTGT [TGTCG]”: the background-corrected fluorescence reads like this: (dye: Cy3 (3' terminal)) 0.594 ± 0.011; (dye: Cy5 (3' terminal)) 0.458 ± 0.038.

With “TTTTTTCATGAGCATCATCATTTTTTTTTTTTTTTGCTGG [GGTCG]”, the background-corrected fluorescence is, setting by setting: (dye: Cy3 (3' terminal)) 0.557 ± 0.039; (dye: Cy5 (3' terminal)) 0.47 ± 0.032.

Turning to “TTTTTTCATGAGCATCATGATTTTTTTTTTTTTTTGCTGC [CGTCG]”, the background-corrected fluorescence came to 0.509 ± 0.031 (dye: Cy3 (3' terminal)) and 0.403 ± 0.029 (dye: Cy5 (3' terminal)).

“TTTTTTCATGAGCATCATGCTTTTTTTTTTTTTTTGCTGA [AGTCG]” yielded a background-corrected fluorescence (dye: Cy3 (3' terminal)) of 0.5917 ± 0.0054 and a background-corrected fluorescence (dye: Cy5 (3' terminal)) of 0.525 ± 0.036.

Take “TTTTTTCATGAGCATGAGCATTTTTTTTTTTTTTTGCTCT [TCTCG]”: the background-corrected fluorescence was 0.497 ± 0.015 (dye: Cy3 (3' terminal)) and 0.337 ± 0.023 (dye: Cy5 (3' terminal)).

On to “TTTTTTCATGAGCATGATCATTTTTTTTTTTTTTTGCTCG”, for which the background-corrected fluorescence came to 0.517 ± 0.015 (dye: Cy3 (3' terminal)) and 0.375 ± 0.033 (dye: Cy5 (3' terminal)).

As for “TTTTTTCATGAGCATGATGATTTTTTTTTTTTTTTGCTCC [CCTCG]”, the background-corrected fluorescence was 0.396 ± 0.022 (dye: Cy3 (3' terminal)) and 0.286 ± 0.021 (dye: Cy5 (3' terminal)).

As to “TTTTTTCATGAGCATGATGCTTTTTTTTTTTTTTTGCTCA [ACTCG]”, the background-corrected fluorescence is 0.485 ± 0.016 (dye: Cy3 (3' terminal)) and 0.386 ± 0.032 (dye: Cy5 (3' terminal)).

“TTTTTTCATGAGCATGCGCATTTTTTTTTTTTTTTGCTAT [TATCG]” displayed a background-corrected fluorescence (dye: Cy3 (3' terminal)) of 0.52 ± 0.019 and a background-corrected fluorescence (dye: Cy5 (3' terminal)) of 0.376 ± 0.035.

“TTTTTTCATGAGCATGCTCATTTTTTTTTTTTTTTGCTAG [GATCG]”: the background-corrected fluorescence is, setting by setting: (dye: Cy3 (3' terminal)) 0.57 ± 0.036; (dye: Cy5 (3' terminal)) 0.422 ± 0.053.

In the case of “TTTTTTCATGAGCATGCTGATTTTTTTTTTTTTTTGCTAC [CATCG]”, the background-corrected fluorescence is, setting by setting: (dye: Cy3 (3' terminal)) 0.424 ± 0.02; (dye: Cy5 (3' terminal)) 0.338 ± 0.031.

As to “TTTTTTCATGAGCATGCTGCTTTTTTTTTTTTTTTGCTAA [AATCG]”, the background-corrected fluorescence by setting is: (dye: Cy3 (3' terminal)) 0.534 ± 0.014; (dye: Cy5 (3' terminal)) 0.463 ± 0.032.

“TTTTTTCATGATCAGCAGCATTTTTTTTTTTTTTTGCGTT” had a background-corrected fluorescence (dye: Cy3 (3' terminal)) of 0.571 ± 0.032 and a background-corrected fluorescence (dye: Cy5 (3' terminal)) of 0.422 ± 0.024.
